Measured values reported in US20250287954A1, “METHOD AND COMPOSITION OF SYNERGISTIC INSECTICIDAL MIXTURES” (priority 2022, published 2025).

Tested on: Cabbage Loopers
Assay: Cabbage looper diet overlay bioassay (mortality at 4 days after treatment)
Format: in vivo
Description: Insecticidal bioassay: Activity against Cabbage Loopers was tested on Diet Overlay Bioassays. The appropriate artificial insect diet was dispensed into each well of a standard 96 well plate and allowed to dry. Once the diet solidified, 100 μL of the treatment was pipetted into the appropriate number of wells and allowed to dry. A single 1st instar larva was delivered into each well of a 96 well plate. Mortality was scored at 4 days after treatment.
Efficacy is expressed as percentage mortality at 4 days post treatment. Results (in duplicates) in % mortality are shown in above Table/chart.
FIG. 6 a plot of an insecticidal bioassay results for various purified compound with and without Sct1. Previous studies have shown that the insecticidal activity present in MBI-203 whole cell broth is mainly attributed to the synergy between secondary metabolites (chromamide analogues) and protein (Sct1). However, for these studies were carried out using mixed chromamides (a mixture of four analogues) and Sct1. With an objective to determine which chromamide analogue is critical for the observed synergy, these individual compounds were purified from MBI-203 WCB, and tested as mixture and individual compounds using the chewing bioassay. All compounds were tested at 3% rate based on the concentration of each present in the MBI-203 WCB. “Chroma mix” contained the chromamides MW 860, MW 874A, MW 874B, and MW 876.
Determination of LC50 value for MW 860 & Sct1. Based on the results from the above testing of purified compounds with & without Sct1, the LC50 for the MW 860, Chromamides MIX and Sct1 was determined. The individual pure compound and their mix were combined with Sct1 and submitted for determining the LC50 value.
FIG. 7 a plot of the effect of variation of concentration of MW 860 & Sct1 on insecticidal activity. Dose dependent study for MW 860 & Sct1 as mixture. To determine the minimum range of concentration of both MW 860 and Sct1 needed for good insecticidal activity, different ratios of both compounds were prepared and submitted for insecticidal bioassay.

## chromamide A [MW 860]
In combination with Sct1, 3% dose, Cabbage looper (CL) bioassay, two subsequent testings
  mortality: 92%

## O=C1NC(c2c[nH]c3ccc(O)cc23)=C/C1=C1\C(=O)Nc2ccccc21 [violacein]
In vivo
  % Mortality (Cabbage Looper Assay) with sct1 (average of 4 bioassays): 3.269%

B1: sct1: Scott protein, ~20 kDa, extracellular secreted hypothetical protein of MBI-203, SEQ ID NO: 1 (protein, listed as Chromobacterium subtsugae)
chain: MSLTTDFLENPQAFMRSQAILIPAQVPPGNGKYQFAAQGAHAAVLQSTAASPNIPGFYAHPVANNINLFVLPTQQPARYYMFTDGMNGCQFLAYGPDRQHITVEHNNFIGDPTRYAARLAEVVALKPAYLLHISPSGVNNIPAGQYNSQQGVNIVGEYGQANGWRFWVRDRVDQNQGTVYGPL
Tested individually, 3% rate based on concentration in MBI-203 WCB (FIG. 6)
  insecticidal activity when tested individually: did not show any significant activity
With sct1, 4 days post treatment, compounds at 2% rate based on concentration in MBI-203 WCB, * samples neat (D30 1%, CSM2 2%)
  % Mortality (Cabbage Looper Assay) with sct1 (average of 4 bioassays): 1.087%
Without sct1, 4 days post treatment, compounds at 2% rate based on concentration in MBI-203 WCB, * samples neat (D30 1%, CSM2 2%)
  % Mortality (Cabbage Looper Assay) without sct1 (average of 3 bioassays): 1.087%
